Measurements published in US20160152729A1 (Novo Nordisk, published 2016).
Each block holds one binder with its values, some of them ahead of it.

Experiments:
human TFPI (1-79) [1] = target: T1, human TFPI (1-79) (human, UniProt P10646 29-107); test: SPR Biacore T200; antibody captured on anti-human IgG Fc; TFPI as analyte; 1:1 model
T1 construct: Acidic N-terminal region and KPI-1 domain
Method: (§1) Binding interaction data were obtained by means of Surface Plasmon Resonance in a Biacore T200 instrument. […] chip (GE Healthcare) in flow-cells 1-4 using the amine coupling protocol available with the Biacore T-200 control software version 2.0 (GE Healthcare) and the reagents provided with the Amine Coupling Kit (GE Healthcare). […] Different concentrations of human TFPIα or TFPI (1-79) were tested by diluting the sample in running buffer (10 mM HEPES, pH 7.4, 300 mM NaCl, 5 mM CaCl₂, 0.05% Surfactant P20, 1 mg/ml BSA). Each sample was assayed using 300 seconds of contact time followed by 420-600 seconds of dissociation time at 30 μl/min flow rate. A buffer blank was also assayed. The sensor surface was regenerated with 10 mM Glycine pH 1.7 either for 180 sec at 30 μl/min flow rate or with two cycles each of 30 seconds at 30 μl/min flow rate.
(§2) The Biacore T200 Evaluation software (version 2.0) was used to analyse the data. Determination of binding constants (kₐ, kd, KD) was obtained assuming a 1:1 interaction of TFPI and the monoclonal antibody of interest.

human TFPIα [2] = target: T2, human TFPIα (human, UniProt P10646 29-304); test: as above
T2 construct: recombinant full-length TFPIα in the assays; also called TFPI alpha; full-length TFPIα
Method: as §1, §2

human TFPIα [3] = target: T2, human TFPIα; test: SPR Biacore T200; Fab captured on Human Fab Binder; TFPIα as analyte; 1:1 model; 25 °C
Method: Human Fab Binder (Human Fab Capture Kit, GE Healthcare) was immobilized to a series S CM4 sensor chip (GE Healthcare) in flow-cells 1-4 at 9000-10000 response units (RU) using the amine coupling protocol available within the Biacore T-200 control software (GE Healthcare) and the reagents provided with the Amine Coupling Kit (GE Healthcare). […] Different concentrations of human TFPIα were tested by diluting the sample in running buffer (10 mM HEPES, pH 7.4, 300 mM NaCl, 5 mM CaCl₂, 0.05% Surfactant P20, 1 mg/ml BSA). Each sample was assayed using 300 seconds of contact time followed by 600 seconds of dissociation time at 50 μl/min flow rate. A buffer blank was also assayed. The sensor surface was regenerated with 10 mM Glycine pH 2.1 with two cycles each of 30 seconds at 50 μl/min flow rate. The analysis temperature was 25° C. and the sample compartment temperature 10° C.
as §2

human TFPIα [4] = target: T2, human TFPIα; test: cell-based or functional assay
human TFPIα [5] = target: T2, human TFPIα; test: cell-based or functional assay; remark: listed apart in the source
human TFPI (1-79) [6] = target: T1, human TFPI (1-79); test: SPR Biacore T200; mAb captured on anti-mouse Ig; TFPI as analyte; 1:1 model
Text: (§3) Binding interaction data were obtained by means of Surface Plasmon Resonance in a Biacore T200 instrument. Polyclonal rabbit anti-mouse immunoglobulin (Mouse Antibody Capture Kit, GE Healthcare) was immobilized to a series S CM4 sensor chip (GE Healthcare) in flow-cells 1-4 using the amine coupling protocol available with the Biacore T-200 control software version 2.0 (GE Healthcare) and the reagents provided with the Amine Coupling Kit (GE Healthcare). The relevant mouse monoclonal antibody was captured in flow cell 2, 3, or 4 at a fixed concentration. Different concentrations of human TFPIα or TFPI (1-79) were tested by diluting the sample in running buffer (10 mM HEPES, pH 7.4, 300 mM NaCl, 5 mM CaCl₂, 0.05% Surfactant P20, 1 mg/ml BSA). Each sample was assayed using 300 seconds of contact time followed by 420-600 seconds of dissociation time at 30 μl/min flow rate. A buffer blank was also assayed. The sensor surface was regenerated with 10 mM Glycine pH 1.7 either for 180 sec at 30 μl/min flow rate or with two cycles each of 30 seconds at 30 μl/min flow rate.
as §2

human TFPIα [7] = target: T2, human TFPIα; test: as above
Text: as §3, §2

human TFPIα [8] = target: T2, human TFPIα; test: cell-based or functional assay; remark: listed apart in the source
human TFPIα [9] = target: T2, human TFPIα; test: cell-based or functional assay; remark: listed apart in the source
human TFPIα [10] = target: T2, human TFPIα; test: cell-based or functional assay; remark: listed apart in the source
human TFPIα [11] = target: T2, human TFPIα; test: SPR Biacore T200; TFPIα held by captured mAb 2F22
human TFPIα [12] = target: T2, human TFPIα; test: SPR Biacore T200; TFPIα held by captured mAb 2F48

- Kd (human TFPI (1-79) [1]): 0.27 nM
- Kd (human TFPIα [2]): 0.46 nM
B1: mAb 0294 (antibody, human IgG4 S228P, kappa, V domains shown)
VH: QVQLKQSGPGLVQPSQSLSITCTVSGFSLTNYGVHWVRQSPGKGLEWLAVIWRGGSIDYNAAFMSRLSITKDNSKSQVFFKMNSLQADDTAIYYCAKNSHGNYVGYAMDYWGQGTSVTVSS
VL: GIVMTQSQKFMSTTVGDRVSITCKASQSVGPAVAWYQQKPGQSPKLLIYSASNRYTGVPDRFTGSGSGADFTLTISNLHSEDLADYFCQQYTSYPTFGGGTKLEIKR
notes: Murine-human chimera of mAb 2F22, human IgG4 (S241P) constant region, human kappa; also called chimeric mAb 2F22

- Kd (human TFPIα [3]): 0.72 nM
B2: Fab 0296 (Fab, V domains shown)
VH: B1 VH
VL: B1 VL
notes: Chimeric Fab of mAb 2F22; heavy chain truncated after the human IgG4 hinge lysine; also called anti-TFPI2F22 Fab

- Kd (human TFPIα [3]): 0.41 nM
B3: Fab 0295 (Fab, V domains shown)
VH: B1 VH
VL: B1 VL
notes: Chimeric Fab of mAb 2F22; heavy chain truncated after the first cysteine of the human IgG4 hinge

- Thrombin peak height (Peak); thrombin generation in FVIII-neutralised plasma + 5 nM TFPIα, 10 nM antibody (human TFPIα [4]): 3.6 nM
- Thrombin peak height (Peak); thrombin generation in FVIII-neutralised plasma, no TFPIα added (plasma TFPI), 10 nM antibody (human TFPIα [4]): 30.4 nM
- time to peak (ttPeak); thrombin generation in FVIII-neutralised plasma + 5 nM TFPIα, 10 nM antibody (human TFPIα [4]): 70.3 min
- time to peak (ttPeak); thrombin generation in FVIII-neutralised plasma, no TFPIα added (plasma TFPI), 10 nM antibody (human TFPIα [4]): 9.6 min
- FXa activity (%); remaining FXa amidolytic activity after 40 min, 32 nM mAb pre-incubated with 8 nM TFPIα (human TFPIα [5]): 13.4%
- Kd (human TFPI (1-79) [6]): 13.3 nM
- koff (human TFPI (1-79) [6]): 0.00251 s⁻¹
- kon (human TFPI (1-79) [6]): 188000 M⁻¹ s⁻¹
- Kd (human TFPIα [7]): 6.27 nM
- koff (human TFPIα [7]): 0.00141 s⁻¹
- kon (human TFPIα [7]): 224000 M⁻¹ s⁻¹
- Thrombin peak height (Peak); thrombin generation in FVIII-neutralised plasma + 20 nM TFPIα, 200 nM antibody (human TFPIα [8]): 0 nM
- FVIIa/sTF activity (%); 150 nM TFPIα, 200 nM antibody (human TFPIα [9]): 61.4%
- FXa activity (%) after 100 min incubation; 4 nM TFPIα, 20 nM antibody (human TFPIα [9]): 4.2%
- FXa activity (%); FXa generated after 30 min by FVIIa/Innovin/FX with 4 nM TFPIα, 64 nM antibody (human TFPIα [10]): 18.3%
B4: mAb 2F35 (antibody, IgG1, V domains shown)
VH: EVQLQQSGAELVRPGALVKLSCKASGFNIKDYYIHWVKQRPEQGLEWIGWIDPENGNTIFDPKFQGRASITADTSSNTAYLQLSSLTSEDTAVYYCAGRWYAMDYWGQGTSVTVSS
VL: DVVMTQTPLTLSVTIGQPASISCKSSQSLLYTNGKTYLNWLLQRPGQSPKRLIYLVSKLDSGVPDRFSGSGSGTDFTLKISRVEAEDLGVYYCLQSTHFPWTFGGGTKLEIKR
notes: Murine mIgG1, kappa light chain

- Thrombin peak height (Peak); thrombin generation in FVIII-neutralised plasma + 5 nM TFPIα, 10 nM antibody (human TFPIα [4]): 3.6 nM
- Thrombin peak height (Peak); thrombin generation in FVIII-neutralised plasma, no TFPIα added (plasma TFPI), 10 nM antibody (human TFPIα [4]): 34.6 nM
- time to peak (ttPeak); thrombin generation in FVIII-neutralised plasma + 5 nM TFPIα, 10 nM antibody (human TFPIα [4]): 51.8 min
- time to peak (ttPeak); thrombin generation in FVIII-neutralised plasma, no TFPIα added (plasma TFPI), 10 nM antibody (human TFPIα [4]): 9 min
- FXa activity (%); remaining FXa amidolytic activity after 40 min, 32 nM mAb pre-incubated with 8 nM TFPIα (human TFPIα [5]): 5.8%
- Kd (human TFPI (1-79) [6]): 15.1 nM
- koff (human TFPI (1-79) [6]): 0.005 s⁻¹
- kon (human TFPI (1-79) [6]): 330000 M⁻¹ s⁻¹
- Kd (human TFPIα [7]): 10 nM
- koff (human TFPIα [7]): 0.00349 s⁻¹
- kon (human TFPIα [7]): 347000 M⁻¹ s⁻¹
- Thrombin peak height (Peak); thrombin generation in FVIII-neutralised plasma + 20 nM TFPIα, 200 nM antibody (human TFPIα [8]): 0 nM
- FVIIa/sTF activity (%); 150 nM TFPIα, 200 nM antibody (human TFPIα [9]): 82.2%
- FXa activity (%) after 100 min incubation; 4 nM TFPIα, 20 nM antibody (human TFPIα [9]): 5.1%
- FXa activity (%); FXa generated after 30 min by FVIIa/Innovin/FX with 4 nM TFPIα, 64 nM antibody (human TFPIα [10]): 13.9%
B5: mAb 1F91 (antibody, IgG1, V domains shown)
VH: DVQLQESGPGLVKPSQSLSLTCTVSGYSITSDYAWNWIRQFPGNKLEWMGYISYSGSTSYNPSLKSRISITRDTSKNQFFLQLNSVTTEDTATYYCARWAYDGPWGQGTLVTVSA
VL: QIVLSQSPALLSASPGEKVTMTCRASSSVSHMHWYQQKPGSSPKPWIYATSNLASGVPARFSGSGSGTSYSLTITRVEAEDAATYYCQQWSSNPFTFGSGTKLEIKR
notes: as for B4

- fold decrease of the affinity for TFPI to FXa, against TFPI bound to mAb 4F110 (human TFPIα [11]): > 30 fold
- fold decrease of the affinity for TFPI to FXa, against TFPI bound to mAb 4F110 (human TFPIα [12]): < 10 fold
B6: FXa (enzyme)
chain 1: ANSFLEEMKKGHLERECMEETCSYEEAREVFEDSDKTNEFWNKYKDGDQCETSPCQNQGKCKDGLGEYTCTCLEGFEGKNCELFTRKLCSLDNGDCDQFCHEEQNSVVCSCARGYTLADNGKACIPTGPYPCGKQTLER
chain 2: IVGGQECKDGECPWQALLINEENEGFCGGTILSEFYILTAAHCLYQAKRFKVRVGDRNTEQEEGGEAVHEVEVVIKHNRFTKETYDFDIAVLRLKTPITFRMNVAPACLPERDWAESTLMTQKTGIVSGFGRTHEKGRQSTRLKMLEVPYVDRNSCKLSSSFIITQNMFCAGYDTKQEDACQGDSGGPHVTRFKDTYFVTGIVSWGEGCARKGKYGIYTKVTAFLKWIDRSMKTRGLPKAKSHAPEVITSSPLK
